The values that follow come from PMC5589848, “BMP-2 induced Dspp transcription is mediated by Dlx3/Osx signaling pathway in odontoblasts”.

The target of this data set is Dlx3 (recombinant) (UniProt O60479 1-287). The data set can be described thus: EMSA; anti-Dlx3 supershift; cold competitor 100x; EMSA as described previously (binding buffer not given); 5% native polyacrylamide gel in 1x TBE; 100-fold molar excess of unlabeled competitor. The note with it: protein: recombinant; label: 32P; blunt. A general note: A gel shift assay detects complexes by their altered migration in electrophoresis.
Chain of Dlx3 (recombinant) (O60479 whole entry): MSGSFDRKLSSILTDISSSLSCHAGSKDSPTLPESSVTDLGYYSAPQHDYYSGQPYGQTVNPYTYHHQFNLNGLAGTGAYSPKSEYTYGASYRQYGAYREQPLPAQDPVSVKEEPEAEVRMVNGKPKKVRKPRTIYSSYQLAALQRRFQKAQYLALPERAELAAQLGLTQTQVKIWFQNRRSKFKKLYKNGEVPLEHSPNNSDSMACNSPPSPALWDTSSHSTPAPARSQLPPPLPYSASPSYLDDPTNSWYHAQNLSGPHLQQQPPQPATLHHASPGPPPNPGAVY

B1: Dlx3I Oligo (dsDNA)
DNA 1: GAGCTATTTAATTAAGTGAAA
DNA 2: TTTCACTTAATTAAATAGCTC
Take B1: the binding result is recorded as “binds”.

B2: Dlx3II Oligo (dsDNA)
DNA 1: GTTGAGAAAATTATCAAACTGA
DNA 2: TCAGTTTGATAATTTTCTCAAC
Consider B2, for which the binding result is “binds”.
